Source: patent US20250092106A1 (University of California, published 2025)

Target: T1, Recombinant soluble integrin αvβ3 (UniProt P06756 31-992; P05106 27-718)
T1 construct: Soluble heterodimer made 'as described [22]'; also called soluble αvβ3; αvβ3 protein
Assay: SPR; soluble αvβ3 immobilized on CM5 chip, HBD as analyte, 1 mM Mn2+

T1 sequence (P06756 31-992, chain 1 of 2): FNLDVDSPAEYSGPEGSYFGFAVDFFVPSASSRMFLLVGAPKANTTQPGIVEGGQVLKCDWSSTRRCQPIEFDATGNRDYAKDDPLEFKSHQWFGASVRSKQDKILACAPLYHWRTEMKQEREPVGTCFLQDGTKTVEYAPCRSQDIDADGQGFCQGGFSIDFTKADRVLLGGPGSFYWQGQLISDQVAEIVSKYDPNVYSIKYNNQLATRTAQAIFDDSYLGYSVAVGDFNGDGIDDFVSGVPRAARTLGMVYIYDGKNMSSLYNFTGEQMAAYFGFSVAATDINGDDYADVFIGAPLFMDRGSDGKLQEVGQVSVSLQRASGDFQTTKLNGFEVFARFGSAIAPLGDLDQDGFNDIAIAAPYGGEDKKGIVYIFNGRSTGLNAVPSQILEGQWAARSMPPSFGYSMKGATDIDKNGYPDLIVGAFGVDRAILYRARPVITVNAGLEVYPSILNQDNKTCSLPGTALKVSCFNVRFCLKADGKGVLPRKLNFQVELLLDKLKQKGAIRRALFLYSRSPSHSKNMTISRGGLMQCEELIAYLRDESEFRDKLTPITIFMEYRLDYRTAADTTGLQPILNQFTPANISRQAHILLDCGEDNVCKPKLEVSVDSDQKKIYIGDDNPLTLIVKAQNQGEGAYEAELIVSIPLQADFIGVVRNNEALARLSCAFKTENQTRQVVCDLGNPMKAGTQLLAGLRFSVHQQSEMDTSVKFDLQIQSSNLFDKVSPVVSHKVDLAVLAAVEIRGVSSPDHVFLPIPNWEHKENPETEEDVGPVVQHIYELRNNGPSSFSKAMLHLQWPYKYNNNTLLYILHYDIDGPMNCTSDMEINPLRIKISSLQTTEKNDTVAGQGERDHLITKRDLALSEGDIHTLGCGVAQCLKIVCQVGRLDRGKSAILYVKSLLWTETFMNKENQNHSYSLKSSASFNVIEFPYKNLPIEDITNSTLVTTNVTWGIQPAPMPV
T1 sequence (P05106 27-718, chain 2 of 2): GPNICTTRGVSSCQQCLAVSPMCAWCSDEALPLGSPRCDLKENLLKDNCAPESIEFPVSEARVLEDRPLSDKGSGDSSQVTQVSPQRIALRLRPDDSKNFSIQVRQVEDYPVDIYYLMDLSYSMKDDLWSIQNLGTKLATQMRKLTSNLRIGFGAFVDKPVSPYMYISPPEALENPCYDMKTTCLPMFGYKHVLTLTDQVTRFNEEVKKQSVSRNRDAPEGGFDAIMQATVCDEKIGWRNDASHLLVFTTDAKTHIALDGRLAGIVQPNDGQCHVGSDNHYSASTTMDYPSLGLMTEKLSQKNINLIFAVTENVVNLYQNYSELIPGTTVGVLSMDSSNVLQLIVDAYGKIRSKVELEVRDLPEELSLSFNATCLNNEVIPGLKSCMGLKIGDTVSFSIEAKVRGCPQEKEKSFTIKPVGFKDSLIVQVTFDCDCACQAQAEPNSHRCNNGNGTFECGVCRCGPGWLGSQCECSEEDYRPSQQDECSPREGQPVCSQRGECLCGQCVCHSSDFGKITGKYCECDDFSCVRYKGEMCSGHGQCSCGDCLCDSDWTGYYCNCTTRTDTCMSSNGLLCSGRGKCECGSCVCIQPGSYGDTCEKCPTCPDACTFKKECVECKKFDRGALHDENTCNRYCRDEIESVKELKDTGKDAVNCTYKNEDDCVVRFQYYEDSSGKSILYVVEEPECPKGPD

B1: VEGF165 heparin-binding domain (HBD, residues 111-165), wild type (ligand)
chain: QALARASGRGGRVARRGAEESGPPHSPSRRGSASRAGPGRASETMNFLLSWVHWS
- Kd: 470 nM
